Measured values reported in patent publication US20140017260A1.

Each substance was assayed against Runx2 (assay: cell-based or functional assay).
Substance “Rorβ E28A/G29A double-point mutant in the DBD, C-terminal FLAG (receptor)” has a suppression of Runx2 activation of the p6OSE2-Luc reporter construct of 96%.
“Rorβ ΔAD (deletion of the activation domain), C-terminal FLAG (receptor)” was tested, and the suppression of Runx2 activation of the p6OSE2-Luc reporter construct was 75%.
“Rorβ ΔHinge (deletion of the Hinge domain), C-terminal FLAG (receptor)” was tested, and the suppression of Runx2 activation of the p6OSE2-Luc reporter construct was 28%.
Work on “Rorβ ΔLBD (deletion of the ligand binding domain), C-terminal FLAG (receptor)” yielded a suppression of Runx2 activation of the p6OSE2-Luc reporter construct of 88%.
“retinoic acid receptor-related orphan receptor beta (Rorβ), wild-type, with C-terminal FLAG epitope” gave a suppression of Runx2 activation of the p6OSE2-Luc reporter construct of 91%.
